Results on 40 sequences are retold here after the nanobody polyreactivity screen of Harvey et al. (2022).

The series in a line: yeast display, Sf9 membrane polyspecificity reagent, FACS + sequencing; frameworks hold sequencing errors. A digest of the protocol: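 A synthetic nanobody library was expressed on Saccharomyces cerevisiae BJ5465 by galactose induction for 36–48 hours. The library was stained for 1 hour at 4 °C with 10% biotinylated, detergent-solubilized Sf9 membrane reagent and enriched with streptavidin microbeads before FACS. Low and high (top ~1%) gates were set on anti-HA fluorescence for expression and streptavidin fluorescence for reagent binding, and each polyreactivity label reflects the gate of origin.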
Take “QVQLVESGGGLVQAGGSLRLSCAASGRIFSWYAMGWYRQAPGKERELVARITSGVSTNYADSVKGRFTISRDNEKNTVYLQMNSLKPEDTAVYDCAADDYSCLYYSSTYRYEYWGQGTQVTVSS”: the “polyreactivity (PSR sort gate)” value is “low polyreactivity”.

Turning to “QVQLVESGGCLVQAGGSLRLSCASSGFTFDIYAMGWYRQAPGKERELVATISFTGDTTSYADSGKGRFTISRDNAKNTVYLQMNSLKPEDTAVYYCAADGSYPLSVGRENLHYAEFDYWGKGTQVTVSS”, the “polyreactivity (PSR sort gate)” value is “low polyreactivity”.

“QVQLVESGGGLVQAGGSLRLSCAASGSTFYGYAMGGYRQAPGKERELVAAISSSGGTTYYADSVKGRFTMSRDNAKNTVYLQMNSLKPEDTAVYYCAARRRSGTYWRSANDYWGQGTQVTVSS”: the “polyreactivity (PSR sort gate)” value is “high polyreactivity”.

Turning to “QVQLVESGGGLVQAGGSLRLSCAASGRIFYGYAMGWYRKAPVKEREFVAAITVSAGSTYYADSVKGRFTISRDNAKNTVYLLMNSLKPEDTAVYYCASKRYVYPSYRFDYWGQGTQVSVSS”, the “polyreactivity (PSR sort gate)” value is listed as “low polyreactivity”.

In the case of “QVHLVESGGGLVQAGGSLRLSSAASGFIFLQYAMGWYRQAPGKEREFVAVISRSGGGTYYADSVKGRFTISRDNAKNTVYLQMNSLKPEDTAVYYCAALGATRSRYDYWGQGTQVTVSS”, the “polyreactivity (PSR sort gate)” value is recorded as “high polyreactivity”.

As for “QVQLVESGGGLVQAGGSLRLSCAASGSTFWGYTMGWYRQAPGKERELVAAISTIGGSTYYADSVKGRFTISRDNAKNTVYLQMNSLKPEDTAVYYCAAEVYTFSGTSWVKDGGYWGQGTQVTVSS”, the “polyreactivity (PSR sort gate)” value was “low polyreactivity”.

Turning to “QVQLVESGGGLVQAGGSLRLSCAASGITFTFNAMGWYRQAPGKDRELVAAMTWSGGSTFYADSVKGRFTISRDNAKNTVYLQMNSLKPEDSAVYYCARDTELYVRWLDYWGQGTQVTVSS”, the “polyreactivity (PSR sort gate)” value is “low polyreactivity”.

On to “QVQLVESGGGLVQAGGSLRLSCAASGRTSILYAMGWYRQAPGKERELVATIYSGGRTYYADSVKGRFTISRDNAKNTVYLQMNSLKPEDTAVYYCAARPNATPRGQTKHYYWGQGTQVTVSS”, for which the “polyreactivity (PSR sort gate)” value was “high polyreactivity”.

“QVQLVESGGGLLQAGGSLRLSCAATGITYDYYDMGWYRQAPGKERELVAAIRWSGTSKYYADSVKGRFTISRDNANNTVYIQMNSLKTEDSAVYYCAALAVGNDYRRYGYWGQGTQVTVSS”: the “polyreactivity (PSR sort gate)” value is “high polyreactivity”.

On to “QVQLLESGVGLVQAGGSLRLSSAASGRNFQQNAMAWYRQAPGKERELVAAINSRGGRTYYADSVKGRFTISRDNAKNTVYLQMNSLKPEDTAVYYCGAYFRNYRSYYYWGQGTQVTVSS”, for which the “polyreactivity (PSR sort gate)” value is listed as “high polyreactivity”.

“QVQLVETGGGLVHAGGSLRLSCAASGSTISLYARGWYRQAPVKERELVASITWGGGSTYADSVKGRFTISRDNAKNTVYLQLNRLKPEDTAVYYCARKYRYRVLYDFAYDHWGQGTQVTVSS”: the “polyreactivity (PSR sort gate)” value is “low polyreactivity”.

Turning to “QVQLVESGGGLVQAGGSLRLSCAASGSTFVWKAMGWYRQAPGKERELVAAISSSGGITYYADSVKGRFTISRDNAKNPVYLQMNSLKPEDTAVYYCAAERDDDWVNYWGQGTQVTVSS”, the “polyreactivity (PSR sort gate)” value is “low polyreactivity”.

Take “QVQLVESGGGLVKAGGSLRLSCAASGSIFPYNAMGWYRQAPGKERELVATISSGGSTNYADSVKGRFTISRDNAKNTVYLQMNSMKPEDTAVYYCAADVSVFYYAPNYWGDIEYGYWGQGTQVTVSS”: the “polyreactivity (PSR sort gate)” value is listed as “low polyreactivity”.

Take “QVHLVDSGGGLVQAGGSLSLSCAASGIIFLTNAMGWYRQAPGTERELVAAITAIGGSTYYADSVKGSFTISRDTSKYTVYLQMNSLKPEDTAGYYCAADFSYVYYLYDYWGQGTQVTVSS”: the “polyreactivity (PSR sort gate)” value was “low polyreactivity”.

Consider “QVQLVESGGGLVQAGGSLRLSCAASGFIFATNAMGWYRQAPGKERELGASISSGDNTNYADSVKGRFTISRDNAKNTVYLQMNSLKPEHTAVYYCAAANKGPDQADYHYDQWGEYEYWGQGTQVTVSS”, for which the “polyreactivity (PSR sort gate)” value was “low polyreactivity”.

“QVQLVESGGGLVQAGGSLRLSCAASGRTIHYYAMGRSRQAPGKERELVAAITRGGNTYYADSVKGRFTISRDNAKNTVYLQMNSLKPEDTAVYYCAKDNHFEAYRYDYWGQGTQVTVSS”: the “polyreactivity (PSR sort gate)” value is recorded as “high polyreactivity”.

Take “QVQLVESGGGLVQAGGSLRLSCAASGGIFRVYAMGWYRQAPGNERELVAAINGRGTSTYYADSVKGRFTISRDNAKNTVYLQMNSLKPEDTAVYYCAASGQYHYDYWGQGTQVTVSS”: the “polyreactivity (PSR sort gate)” value is listed as “high polyreactivity”.

On to “QVQRVESAGGLVQAGGSLRLSCAASGRTFSGNARGWYRPAPGKERELVAGISTTGGSTYYADSVKGRFTISRDNAKNTVYLEMNSLKPADTAVYYCAAYSASNGGYDYWGQGTQVTVSS”, for which the “polyreactivity (PSR sort gate)” value is “high polyreactivity”.

In the case of “QVQLVESGGGLVQAGGSLRISCAASGFTFPIYAMGWYRKAPGKEREFVAAITASGDNTYYADSVKGRFTISRDNAKNTVYLQMNSLKPEDSAVYYCAADWFVDWWEYDYWGQGTQVTVSS”, the “polyreactivity (PSR sort gate)” value is listed as “low polyreactivity”.

With “QVQLVESGGGLVQAGGSLRLSCAASGHIFFYYTMGWYRQAPGKERELVAGITIGGSTNYADSVKGRFTISRDNAKNTVYLQMNSLKPEDSAVYYCNVVKYVYIYSYWEYYYWGQGTQVTVSS”, the “polyreactivity (PSR sort gate)” value is reported as “low polyreactivity”.

In the case of “QDQLVESAGGLVQAGGSLRLSCAASGRTFVTNTMGWSRQAPGKERELVAAISSRGGTTYYADSVKGRFTISRDNAKNTVYLQMNSLKPEDTAVYYCNTGTRAIQRDGFEYWGQGTQVTVSS”, the “polyreactivity (PSR sort gate)” value was “low polyreactivity”.

Regarding “QDQLVESGGGLDQAGGSLRLSCAASGRTFLWNAMGWYRQAPGKERELVARINLSGGRTYYADSVKGRFTISRDNAKNTVYLQMNSLKPDDTAVYYCAATVVRYRRDSWGQGTQVTVSS”, the “polyreactivity (PSR sort gate)” value is reported as “low polyreactivity”.

As for “QVQLVESGGGLVQAGGSLRLSCAASGFTFTSNAMGWYRQAPGKERELVAVISTRGGSTYYADSVKGRFTISRDNAKNTVYLQMNSLKPEDTAVYYCAARQIPNSVLVHYGYWGLGTQVTVSS”, the “polyreactivity (PSR sort gate)” value is recorded as “high polyreactivity”.

Turning to “QVQLVESGGGLVQAGGSLRLSCAASGRTFSSYAMGWYRQAPGKEREFVAAISRSGASTRYADSVKGRFTISRDNAKNTVYLQMNSLKPEDTAVYYCAAVWPDVRGYDYWGQGTQVTVSS”, the “polyreactivity (PSR sort gate)” value is given as “high polyreactivity”.

As to “QVQLVESGGGLVQAGGSLRLSCAASGSTFNINAMGWYRQAPGKERELVAAISSRGGSTYYADSVKGRFTISRDNAKNTVYLQMNSLKPEDTAVYYCAASPRRVENAGRVRLYYWGQGTQVTVSS”, the “polyreactivity (PSR sort gate)” value is given as “high polyreactivity”.

Take “QVQLVESGGGLVQAGGSLRLSCAASGFIFDSYAMGCYRQAPGKETELVAAISYSGGNTYYADSVKGRFTISRDNAQITVYLQMNSLKPEDTAFYYCAAEWSDSRWWRLWWYGEDDYWGQGTQVTVSS”: the “polyreactivity (PSR sort gate)” value is recorded as “high polyreactivity”.

On to “QVQLVESGGGLFQAGRSLRLSSPASGSSFISYAMGWYRQAPGKDRELVAAITSRGGRTYYADSVKGRFTISRDNAKYTVDLQMNCLKPDDTAVYYCAASFSYRIRRYDYWGQGTQVTVSS”, for which the “polyreactivity (PSR sort gate)” value is “high polyreactivity”.

Take “QVQLVESGGGLGQAGGSLRSSCAASGSIICYYAMGWYRQAPGKEWELVATITSGGSTSYADSVKGRFTISRDNAKNTVHLQMNSLKPEDTAVYYCAARNVTKSTYNYWGQGTQVTVSS”: the “polyreactivity (PSR sort gate)” value is listed as “low polyreactivity”.

In the case of “QVQLVESGGGLVQAGGSLRLSCAPYGFTFSKYAMGWYRKAPGKERELVAAITYSGGTTYYADSVKGRFTISRDNAKNTVYLQMNSLKPEDTAVYYCAADTKRRSIRYDYWGQGTQVTVSS”, the “polyreactivity (PSR sort gate)” value was “high polyreactivity”.

“QVQLVESGGGLVKAGGSLRFSCAASGSIFHPYELGWKTQAPRKESDLVAGISRSGTSTYYADSVKGRFTISRDNAKNTVYLQMNSLKPEDTAVYYCYKVLVGSNRGEYDYWGQGTQVTVSS”: the “polyreactivity (PSR sort gate)” value is given as “low polyreactivity”.

Take “QVQLVESGGGLVQAGGSLRLSCAASGFTFRGYAMGWYRQAPGKERELVAAISWRGGSTYYADSVKGRFTISRDNAKNTVYLQMNSLKPEDTAVYYCAARYGRSYFGYYYWGQGTQVTVSS”: the “polyreactivity (PSR sort gate)” value is “high polyreactivity”.

On to “QVQLVESGGGLVQAGGSLRLSCAASGITFWFNAMGWYRQAPGKERELVAAITSGVDTNYADSVKGRFTISRDNAKNTVYLQMNSLKPEDTAVYYCAAQGGRLKRGRTTSDYWGQGTQVTVSS”, for which the “polyreactivity (PSR sort gate)” value is “low polyreactivity”.

In the case of “QVQLVESGGGLGQAGGSLRLSCAASGRIVSNAMGWYRQAPGKERELVAAISRRGGSTYYADSVKGRFTISRENAKNTVYLQMNSLIPEDTAVYSCASRPFFTYRWYDYWGQGTQVTVSS”, the “polyreactivity (PSR sort gate)” value is on record as “high polyreactivity”.

In the case of “QVQLVESGGGLVQAGGSLRLSCAASGRIFWQNAKGWYRQAPGKERELVAAISSRGGTTYYADSVKGRFTISRDNAKNTVYLQMNRLKPEDTAVYYCNAALLLRYRGFFTVAAYDYWGQGTQVTVSS”, the “polyreactivity (PSR sort gate)” value is reported as “low polyreactivity”.

Consider “QVQLVESGGGLVQAGASLRLSCAASGRIFGRNAMGWYRQAPGKERELVAAISSGSGSTYYADSVKGRFTISRDNAKHTVYLQLNSLIPEDTAVYYCAATVSTYLAWRGYWGQGTQVTVSS”, for which the “polyreactivity (PSR sort gate)” value was “high polyreactivity”.

For the sequence “QVQLVESGGGLVQAGGSLRLSVAASGRTFYSYSMGWYRQAHGKERELVASITNGETKNYADSVKGRFTISRDNAKNTVYLQMNSLKPEDTAVYYCAADDSSRTTYDYWGQGTQVTVSS”, the “polyreactivity (PSR sort gate)” value is recorded as “low polyreactivity”.

“HVQLVESGGGFVQAGGSLRLSCASYGSIFSGYAMGSYRQAPAKERELVAAISNTGSTNYADSVKGRFTISRDNAKYNVYLQMNSLKPEDTAVYYCNASYSYGEMDYWGQGTQVTVSS”: the “polyreactivity (PSR sort gate)” value is “low polyreactivity”.

Take “QVQLVESGGGLVQAGGSLRLSCAASGSTFKAYAMGWYRQAPGKERELVAAITNSDGDTYYADSVKGRFTISRDNAKNTVYLLMNSLKPEDTAVYYFNADDALRQTSDYNYWGQGTQVTVSS”: the “polyreactivity (PSR sort gate)” value is listed as “low polyreactivity”.

“QVQLVESGGGLVQAGGSLRLSCAASGSTFHRYAMGWYRQAPGKERELVATINLNTGSTYADSVKGRFTISRDNAKNTVYLQMNSLKPEDTAVYYCAAYGRWPFTWYNYWGQGTQVTVSS”: the “polyreactivity (PSR sort gate)” value is recorded as “low polyreactivity”.

Regarding “QVQLVESGGGLVQAGGSLPLSSAASGITFRLYALGWYRQAPGKERELVATITSLGGGTYYADSVKGRFTISRDNAKNTVYLQMHCLIPEDTAVYYCAADVSRPPAGFNYWGQGSQVTVSS”, the “polyreactivity (PSR sort gate)” value was “high polyreactivity”.
